Data on 9 molecules can be found in US10544202B2, “Mutant proteins and methods for their production” (Medical Research Council, priority 2013, dated 2020).

Where “and” joins values, the source holds several entries; their conditions need not be identical. Identical values can stand only once.

One data set has as its target T1, SAH7 (Rattus norvegicus, UniProt P31652, A505L/L405A/P499A).
T1 construct: expressed in transfected cells; host or cells: T-REx-293 (HEK293) cells, membranes
Nature of the data set: [125I]-RTI55 saturation binding on membranes, SAH7. Conditions: read-out: apparent KD for [125I]-RTI55 binding.

Data set [1] deals with T2, SAH6 (Rattus norvegicus, UniProt P31652, A505L/G278A/L99A). Nature of the data set: [125I]-RTI55 saturation binding on membranes, SAH6. The arrangement: expressed in transfected cells; host or cells: T-REx-293 (HEK293) cells, membranes. Conditions: read-out: apparent KD for [125I]-RTI55 binding.
The target in data set [2] is T2, SAH6. Conditions: SAH6 vs wild-type SERT.
Data set [3] in a line: Thermostability assay of [125I]-RTI55-bound detergent-solubilised SERT (apparent Tm).
Data set [4] has as its system tetracycline-induced stable T-REx cell lines. Nature of the data set: [3H]-5HT uptake assay. The format is cell-based. Conditions: cell lines expressing cell surface-expressed mutant-GFP.
The subject of data set [5] is T-REx-293 cells. Nature of the data set: Expression level of SERT-mCherry mutants transiently transfected into T-REx-293 cells. It counts as cell-based. Conditions: relative to wild-type SERT = 100%; transient transfection. The procedure: (FIG. 3A) Comparison of [^125I]-RTI55 bound to 554 detergent-solubilised Ala/Leu mutants at either 4° C. or after heating at 30° C. for 30 minutes. The data relating to thermostability (the heated samples) have been normalized to the amount of wild-type SERT remaining after heating (40%; horizontal dashed line). The expression level of wild-type SERT is indicated by the vertical dashed line and the grey column (0-200 dpm) represents non-specific binding of [^125I]-RTI55 to the parental T-REx-HEK293 cell line (no SERT). Each data point represents binding to the equivalent of 50,000 cells measured in duplicate (estimated error is ±20% in dpm). […] (FIG. 3C) Amino acid sequence of SERT (SEQ ID NO: 1) showing the positions of the thermostabilising mutations (hatched) that consistently gave >1° C. increase in Tm compared to wild-type SERT; residues in bold and hatched were used to stabilize either SAH6 and/or SAH7. N-linked glycosylation sites are indicated by the hexagons, a putative disulphide bond is shown as a grey line and the N-terminal and C-terminal fusion partners are shown (c-Myc tag and the fluorescent reporter protein mCherry) are indicated.

In data set [6] the test system is T-REx-293 cells. Nature of the data set: Cell surface expression by confocal microscopy. It counts as cell-based. Conditions: estimation by eye of fluorescence upon confocal microscopy. Also on record: key: *: low expression; **: as wild-type SERT; ***: higher expression than wild-type SERT.

Regarding `COC(=O)[C@H]1C(c2ccc(I)cc2)C[C@@H]2CC[C@H]1N2C` (stereo partly drawn) [[^125I]-RTI55, RTI55 (β-CIT)], the Kd at SAH7 is 1.3 nM and 1.2 nM and 1.5 nM; on SAH6 [1] it was 3.8 nM and 3.7 nM.

With ibogaine, at SAH6 [2], the “decrease in affinity relative to wild-type SERT” value was determined as 4.5 fold.

`CN(C)CCCN1c2ccccc2CCc2ccccc21` [imipramine]: the “decrease in affinity relative to wild-type SERT” value on SAH6 [2] was found to be 6.7 fold.

B1: wild-type SERT: cocaine-sensitive rat serotonin transporter, parent protein (protein, listed as Rattus sp.)
chain: METTPLNSQKVLSECKDREDCQENGVLQKGVPTTADRAEPSQISNGYSAVPSTSAGDEASHSIPAATTTLVAEIRQGERETWGKKMDFLLSVIGYAVDLGNIWRFPYICYQNGGGAFLLPYTIMAIFGGIPLFYMELALGQYHRNGCISIWRKICPIFKGIGYAICIIAFYIASYYNTIIAWALYYLISSLTDRLPWTSCTNSWNTGNCTNYFAQDNITWTLHSTSPAEEFYLRHVLQIHQSKGLQDLGTISWQLTLCIVLIFTVIYFSIWKGVKTSGKVVWVTATFPYIVLSVLLVRGATLPGAWRGVVFYLKPNWQKLLETGVWVDAAAQIFFSLGPGFGVLLAFASYNKFNNNCYQDALVTSVVNCMTSFVSGFVIFTVLGYMAEMRNEDVSEVAKDAGPSLLFITYAEAIANMPASTFFAIIFFLMLITLGLDSTFAGLEGVITAVLDEFPHIWAKRREWFVLIVVITCVLGSLLTLTSGGAYVVTLLEEYATGPAVLTVALIEAVAVSWFYGITQFCSDVKEMLGFSPGWFWRICWVAISPLFLLFIICSFLMSPPQLRLFQYNYPHWSIVLGYCIGMSSVICIPTYIIYRLISTPGTLKERIIKSITPETPTEIPCGDIRMNAV
As for B1, the “amount of transporter remaining after heating” value in data set [3] (30° C. for 30 minutes) is on record as 40%. In addition, the “Apparent Tm in 0.1% DDM” value in data set [3] (125I-RTI55-bound detergent-solubilised SERT, apparent Tm ±1° C.) was found to be 28 °C. The “apparent Tm” value in data set [3] ([125I]-RTI55-bound, DDM-solubilised, 30 min heating) came out at 28 °C. Also, in data set [3] (single-temperature assay, 28° C. for 30 minutes), the “transporter remaining functional after heating” value was “approximately 40%”.

B2: SAH6: thermostabilised rat SERT triple mutant A505L+L99A+G278A (protein, UniProt P31652 1-630, looked up, variant A505L L99A G278A)
Sodium-dependent serotonin …: METTPLNSQKVLSECKDREDCQENGVLQKGVPTTADRAEPSQISNGYSAVPSTSAGDEASHSIPAATTTLVAEIRQGERETWGKKMDFLLSVIGYAVDAGNIWRFPYICYQNGGGAFLLPYTIMAIFGGIPLFYMELALGQYHRNGCISIWRKICPIFKGIGYAICIIAFYIASYYNTIIAWALYYLISSLTDRLPWTSCTNSWNTGNCTNYFAQDNITWTLHSTSPAEEFYLRHVLQIHQSKGLQDLGTISWQLTLCIVLIFTVIYFSIWKGVKTSAKVVWVTATFPYIVLSVLLVRGATLPGAWRGVVFYLKPNWQKLLETGVWVDAAAQIFFSLGPGFGVLLAFASYNKFNNNCYQDALVTSVVNCMTSFVSGFVIFTVLGYMAEMRNEDVSEVAKDAGPSLLFITYAEAIANMPASTFFAIIFFLMLITLGLDSTFAGLEGVITAVLDEFPHIWAKRREWFVLIVVITCVLGSLLTLTSGGAYVVTLLEEYATGPAVLTVLLIEAVAVSWFYGITQFCSDVKEMLGFSPGWFWRICWVAISPLFLLFIICSFLMSPPQLRLFQYNYPHWSIVLGYCIGMSSVICIPTYIIYRLISTPGTLKERIIKSITPETPTEIPCGDIRMNAV
B2: the “transport of [3H]-5HT into the cell” value in data set [4] is “no significant transport”.

B3: A505L: rat SERT single mutant A505L (protein)
chain: METTPLNSQKVLSECKDREDCQENGVLQKGVPTTADRAEPSQISNGYSAVPSTSAGDEASHSIPAATTTLVAEIRQGERETWGKKMDFLLSVIGYAVDLGNIWRFPYICYQNGGGAFLLPYTIMAIFGGIPLFYMELALGQYHRNGCISIWRKICPIFKGIGYAICIIAFYIASYYNTIIAWALYYLISSLTDRLPWTSCTNSWNTGNCTNYFAQDNITWTLHSTSPAEEFYLRHVLQIHQSKGLQDLGTISWQLTLCIVLIFTVIYFSIWKGVKTSGKVVWVTATFPYIVLSVLLVRGATLPGAWRGVVFYLKPNWQKLLETGVWVDAAAQIFFSLGPGFGVLLAFASYNKFNNNCYQDALVTSVVNCMTSFVSGFVIFTVLGYMAEMRNEDVSEVAKDAGPSLLFITYAEAIANMPASTFFAIIFFLMLITLGLDSTFAGLEGVITAVLDEFPHIWAKRREWFVLIVVITCVLGSLLTLTSGGAYVVTLLEEYATGPAVLTVLLIEAVAVSWFYGITQFCSDVKEMLGFSPGWFWRICWVAISPLFLLFIICSFLMSPPQLRLFQYNYPHWSIVLGYCIGMSSVICIPTYIIYRLISTPGTLKERIIKSITPETPTEIPCGDIRMNAV
Regarding B3, the “Expression (%) SERT = 100%” value in the data set with T-REx-293 cells [5] is on record as 175%. The Cell surface expression entry in the data set on T-REx-293 cells [6] was “***”.

B4: G113A: rat SERT single mutant G113A (protein)
chain: METTPLNSQKVLSECKDREDCQENGVLQKGVPTTADRAEPSQISNGYSAVPSTSAGDEASHSIPAATTTLVAEIRQGERETWGKKMDFLLSVIGYAVDLGNIWRFPYICYQNAGGAFLLPYTIMAIFGGIPLFYMELALGQYHRNGCISIWRKICPIFKGIGYAICIIAFYIASYYNTIIAWALYYLISSLTDRLPWTSCTNSWNTGNCTNYFAQDNITWTLHSTSPAEEFYLRHVLQIHQSKGLQDLGTISWQLTLCIVLIFTVIYFSIWKGVKTSGKVVWVTATFPYIVLSVLLVRGATLPGAWRGVVFYLKPNWQKLLETGVWVDAAAQIFFSLGPGFGVLLAFASYNKFNNNCYQDALVTSVVNCMTSFVSGFVIFTVLGYMAEMRNEDVSEVAKDAGPSLLFITYAEAIANMPASTFFAIIFFLMLITLGLDSTFAGLEGVITAVLDEFPHIWAKRREWFVLIVVITCVLGSLLTLTSGGAYVVTLLEEYATGPAVLTVALIEAVAVSWFYGITQFCSDVKEMLGFSPGWFWRICWVAISPLFLLFIICSFLMSPPQLRLFQYNYPHWSIVLGYCIGMSSVICIPTYIIYRLISTPGTLKERIIKSITPETPTEIPCGDIRMNAV
For B4, in the data set on T-REx-293 cells [5], the “Expression (%) SERT = 100%” value is given as 42%. Besides, the Cell surface expression entry with T-REx-293 cells [6] was “**”.

B5: P499A: rat SERT single mutant P499A (protein)
chain: METTPLNSQKVLSECKDREDCQENGVLQKGVPTTADRAEPSQISNGYSAVPSTSAGDEASHSIPAATTTLVAEIRQGERETWGKKMDFLLSVIGYAVDLGNIWRFPYICYQNGGGAFLLPYTIMAIFGGIPLFYMELALGQYHRNGCISIWRKICPIFKGIGYAICIIAFYIASYYNTIIAWALYYLISSLTDRLPWTSCTNSWNTGNCTNYFAQDNITWTLHSTSPAEEFYLRHVLQIHQSKGLQDLGTISWQLTLCIVLIFTVIYFSIWKGVKTSGKVVWVTATFPYIVLSVLLVRGATLPGAWRGVVFYLKPNWQKLLETGVWVDAAAQIFFSLGPGFGVLLAFASYNKFNNNCYQDALVTSVVNCMTSFVSGFVIFTVLGYMAEMRNEDVSEVAKDAGPSLLFITYAEAIANMPASTFFAIIFFLMLITLGLDSTFAGLEGVITAVLDEFPHIWAKRREWFVLIVVITCVLGSLLTLTSGGAYVVTLLEEYATGAAVLTVALIEAVAVSWFYGITQFCSDVKEMLGFSPGWFWRICWVAISPLFLLFIICSFLMSPPQLRLFQYNYPHWSIVLGYCIGMSSVICIPTYIIYRLISTPGTLKERIIKSITPETPTEIPCGDIRMNAV
As to B5, the “Expression (%) SERT = 100%” value in the data set on T-REx-293 cells [5] stood at 65%. In addition, the Cell surface expression result with T-REx-293 cells [6] is “**”.

B6: SAH7: thermostabilised rat SERT triple mutant A505L+P499A+L405A (protein, UniProt P31652 1-630, looked up, variant A505L P499A L405A)
Sodium-dependent serotonin …: METTPLNSQKVLSECKDREDCQENGVLQKGVPTTADRAEPSQISNGYSAVPSTSAGDEASHSIPAATTTLVAEIRQGERETWGKKMDFLLSVIGYAVDLGNIWRFPYICYQNGGGAFLLPYTIMAIFGGIPLFYMELALGQYHRNGCISIWRKICPIFKGIGYAICIIAFYIASYYNTIIAWALYYLISSLTDRLPWTSCTNSWNTGNCTNYFAQDNITWTLHSTSPAEEFYLRHVLQIHQSKGLQDLGTISWQLTLCIVLIFTVIYFSIWKGVKTSGKVVWVTATFPYIVLSVLLVRGATLPGAWRGVVFYLKPNWQKLLETGVWVDAAAQIFFSLGPGFGVLLAFASYNKFNNNCYQDALVTSVVNCMTSFVSGFVIFTVLGYMAEMRNEDVSEVAKDAGPSALFITYAEAIANMPASTFFAIIFFLMLITLGLDSTFAGLEGVITAVLDEFPHIWAKRREWFVLIVVITCVLGSLLTLTSGGAYVVTLLEEYATGAAVLTVLLIEAVAVSWFYGITQFCSDVKEMLGFSPGWFWRICWVAISPLFLLFIICSFLMSPPQLRLFQYNYPHWSIVLGYCIGMSSVICIPTYIIYRLISTPGTLKERIIKSITPETPTEIPCGDIRMNAV
On to B6, for which, in data set [4], the “transport of [3H]-5HT into the cell” value is listed as “no significant transport”.
